Experiments:
Assay in all cases: pull-down binding Z-score (relative to library population); higher = stronger binding
[1] = system: TO-3-N3 (biotin conjugate); conditions: RNA library: Library-2
In short: (§1)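 Heat-folded RNA library (1 μg, Cy5 or Cy3 end label, phosphate/NaCl/KCl buffer) was captured for 60 min at 25 °C on streptavidin beads displaying 100 pmol of biotin-conjugated small molecule, then washed three times. The bound fraction, eluted in hot SDS, was hybridised to a DNA barcode microarray at 55.5 °C for 20 h. Z-scores for binding were taken against the library mean and standard deviation after beads-only subtraction and trimmed averaging of replicate barcoded probes.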

[2] = system: TO-N3-2 (biotin conjugate); conditions: RNA library: Library-2
In short: as §1

[3] = system: TO-3-N3-2 (biotin conjugate); conditions: RNA library: Library-2
In short: as §1

[4] = system: G-clamp-N3 (biotin conjugate); conditions: RNA library: Library-1 (pre-miRNA loops + repeats)
In short: as §1

[5] = system: TO-N3 (biotin conjugate); conditions: RNA library: Library-2
In short: as §1

Row | Sequence | pull-down binding Z-score [1] | pull-down binding Z-score [2] | pull-down binding Z-score [3] | pull-down binding Z-score [4] | pull-down binding Z-score [5]
1 | CUGUUGUUUCAGCUCGACAACAACAG [hsa-mir-3937] | -0.212 | -0.505 | -0.335 | 0.361 | -0.333
2 | CUGUUUCUGGUGAAAUAUUCAAACAG [hsa-mir-4433a] | 0.27 | 0.256 | -0.178 | -0.293 | -0.0687
3 | CUGUUUGUUGUCUGAGAAAAAACA [hsa-mir-520g_520h] | -0.638 | -0.229 | -0.125 | 1.11 | -0.598
4 | CUUAAGUGGUUCGGGUAAAUCACUUUAA [hsa-mir-3977] | -0.623 | -0.585 | -0.186 | -1.04 | -0.623
5 | CUUAAUAGAUUAAUAUUUGUAAG [hsa-mir-506] | -0.743 | -1.02 | -0.335 | 0.431 | -0.877
6 | CUUACUGCCCGGGCCGCCCUCAGUAA [hsa-mir-212] | 0.545 | 1.45 | 0.033 | -1.81 | 1.17
7 | CUUACUGUACACGUGGCUGGCAAG [hsa-mir-4428] | -0.0149 | 1.09 | 0.108 | -0.412 | 0.588
8 | CUUAGAUUUUUCCAUCUUUGUAUCUAG [hsa-mir-29b-2] | -0.805 | -0.98 | -0.236 | 0.453 | -0.995
9 | CUUAGUAGGUGAUAGCAUGACUGAC [hsa-mir-5002] | 0.324 | 1.16 | 0.356 | 1.66 | 0.958
10 | CUUCACUGGUGCAGUAAGAAG [hsa-mir-7853] | -0.0978 | -0.23 | -0.195 | -0.0639 | -0.253
11 | CUUCAGAGCAGGGUUUGGUCUGUGCUUCUCUG [hsa-mir-6719] | -0.415 | 0.452 | -0.245 | 0.184 | -0.222
12 | CUUCAGCCCCAGGAAGCCUUGGUCGGGGGCAGGAG [hsa-mir-647] | 0.309 | 0.849 | -0.171 | 0.744 | 0.594
13 | CUUCCCAUUUAAAAGUAAUGGCACA [hsa-mir-603] | 0.893 | 0.104 | 0.425 | -2.03 | 0.861
14 | CUUCCUGAGCACGCUCAUGAUGAGCAAACUGAGCCUCUAAG [hsa-mir-3653] | 0.463 | 0.429 | 0.277 | -0.859 | 0.596
15 | CUUCGCGCUAGUUUGUUUGUGUUAAG [hsa-mir-6077] | -0.0696 | -0.426 | 0.0164 | -0.639 | -0.0943
16 | CUUCGGUAUUCAUCAAAAAUACCAAAG [hsa-mir-4735] | -0.683 | -1.52 | -0.63 | -0.293 | -1.08
17 | CUUCUGCUUCCUCUUAGCGCAGGAG [hsa-mir-1914] | -0.591 | -0.409 | -0.325 | -1.66 | -0.751
18 | CUUCUUACUGCACCAGUGAAG [hsa-mir-5683] | -0.186 | 0.131 | -0.268 | -1.53 | -0.0796
19 | CUUGAUUUAAAUGUCCAUACAAUUAAG [hsa-mir-124-1] | -0.0597 | -0.133 | -0.142 | -0.57 | -0.179

Row | Sequence | pull-down binding Z-score [1] | pull-down binding Z-score [2] | pull-down binding Z-score [3] | pull-down binding Z-score [4] | pull-down binding Z-score [5]
20 | CUUGAUUUAAUGUCAUACAAUUAAG [hsa-mir-124-2] | -0.687 | -0.734 | -0.157 | -0.895 | -0.928
21 | CUUGAUUUAAUGUCUAUACAAUUAAG [hsa-mir-124-3] | -0.0185 | -0.45 | -0.0577 | -0.412 | -0.159
22 | CUUGCAGAAUUAAUGGAAUGCUG [hsa-mir-676] | 0.253 | 0.28 | 0.0539 | -1.73 | 0.41
23 | CUUGCGGGGCCUUCGCCGCACACAAG [hsa-mir-99b] | 0.198 | 0.595 | -0.148 | 1.51 | 0.328
24 | CUUGCUGUGACAUGACAAAAAUAAG [hsa-mir-302d] | 0.449 | -0.107 | 0.294 | -0.853 | 0.357
25 | CUUGCUUUGAAACUAAAGAAGUAAG [hsa-mir-302a] | -0.0041 | -0.319 | -0.131 | 0.749 | -0.193
26 | CUUGGCACCUUUGGCCUUAG [hsa-mir-4540] | 0.0499 | -0.0687 | -0.125 | 0.795 | 0.112
27 | CUUGGCUUCAAUUUACUCCCAGG [hsa-mir-4446] | 0.257 | 0.323 | -0.0843 | -1.06 | 0.101
28 | CUUGGGCCCAUUCCUUUCCUUACCCUAC [hsa-mir-6798] | 0.268 | 0.758 | 0.218 | -1.1 | 0.541
29 | CUUGUGGUAUUAGUCCGCACAAG [hsa-mir-100] | 0.418 | -0.096 | -0.161 | 1.17 | 0.334
30 | CUUGUGGUGAAGUGGACCGCACAAG [hsa-mir-99a] | -0.203 | 1 | 0.00618 | 1.24 | -0.0222
31 | CUUUAGCUAUUCUGAAUGCCUAAAG [hsa-mir-4662a] | -0.298 | -0.393 | -0.236 | -0.469 | -0.375
32 | CUUUAGGCAUUCAGAAUAGCUAAAG [hsa-mir-4662b] | -0.451 | -0.263 | -0.212 | -0.994 | -0.472
33 | CUUUCCUCAGCUGAUUUCUUUCUGGGGAGAG [hsa-mir-5186] | -0.144 | -1.08 | -0.279 | -0.72 | -0.52
34 | CUUUCCUUUUUGUCUGUACUGGGAAG [hsa-mir-373] | -0.365 | -1.12 | -0.328 | 0.709 | -0.709
35 | CUUUCUGUGACUUUAAAAGUAAG [hsa-mir-302b] | -0.538 | -0.999 | -0.355 | -0.444 | -0.844
36 | CUUUCUGUUGGCUAAAAGAAAAGAAAG [hsa-mir-518e] | -0.396 | 0.0576 | 0.129 | 1.11 | -0.366
37 | CUUUCUGUUGUCUAAAAGAAAAGAAAG [hsa-mir-520d] | -0.444 | -0.127 | -0.331 | 0.0447 | -0.415

From the supplement of paper PMC11865577
